From patent US20040127682A1

Assays:
[1] = biological target: human CD3 (CD3 epsilon of the T-cell receptor complex) on Jurkat cells (human) (UniProt P07766); experiment: competition with 125I-UCHT1 tracer on Jurkat cells; competitor at 1 nM
[2] = biological target: human CD3 (CD3 epsilon of the T-cell receptor complex) on Jurkat cells (human) (UniProt P07766); experiment: competition with 125I-UCHT1 tracer on Jurkat cells; competitor at 100 nM

Chain of UniProt P07766 (P07766 23-207, one chain of several): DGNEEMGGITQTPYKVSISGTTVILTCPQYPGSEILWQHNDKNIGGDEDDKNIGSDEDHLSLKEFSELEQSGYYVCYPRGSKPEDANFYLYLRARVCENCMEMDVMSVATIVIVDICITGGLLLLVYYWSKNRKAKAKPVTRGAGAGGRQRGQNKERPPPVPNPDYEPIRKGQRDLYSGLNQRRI

% of 125I-UCHT1 bound to cells [1]: 80%
% of 125I-UCHT1 bound to cells [2]: 0%
Substance: scUCHT1
